Results published in patent US12246067B2, “Neoantigens and uses thereof” (priority 2018, dated 2025).

Tests used:
[1] = test system: ovarian carcinoma patients; details: poly-ICLC in combination with a NYESO-1 peptide vaccine (in addition to Montanide); phase 1 study; cited from earlier work
[2] = test system: humans; details: cited from earlier work
[3] = target: T1, HLA-A02:01 (Homo sapiens, UniProt P04439, D140Y/D185E/D98H/E176V/E277Q/G131W/G231S/I119V/I121R/I166T/I218V/L300P/L318F/N151K/N90K/P208A/P217A/Q86G/Q94H/R138H/R169H/T345S); assay: Stability of neoepitopes with the HLA allele; type: binding; details: HLA allele A02.01; mutant KRAS peptides (Example 9)
Protocol: (§1) Multiple peptides containing the neoepitopes in the table below were expressed or loaded onto antigen presenting cells (APCs). Mass spectrometry was then performed and the affinity of the neoepitopes for the indicated HLA alleles and stability of the neoepitopes with the HLA alleles was determined.

[4] = target: T1, HLA-A02:01; assay: Affinity of neoepitopes for the indicated HLA allele; type: binding; details: HLA allele A02.01; mutant KRAS peptides (Example 9)
Protocol: as §1

| Substance | Patients showing induction of CD4+ and CD8+ T cell, as well as antibody responses to the peptide [1] [%] | CD4+ and CD8+ responses in humans [2] | Measured stability [3] [h] | Measured Affinity [4] [nM] |
| --- | --- | --- | --- | --- |
| poly-ICLC | > 90 | can induce durable CD4^+ and CD8^+ responses | – | – |
| LVVVGADGV | – | – | 0.0 | 977.4 |
| LVVVGAVGV | – | – | 0.6 | 682.5 |
| LVVVGACGV | – | – | 0.6 | 667.1 |
